Source: article PMC8158037, “Staphylococcus aureus N-terminus formylated δ-toxin tends to form amyloid fibrils, while the deformylated δ-toxin tends to form functional oligomer complexes” (Virulence, 2021)
No end group written: not given here. *: point of attachment. For = O=C*

B1: PSMα4, synthetic peptide (peptide)
chain: For-MAIVGTIIKIIKAIIDIFAK
notes: source: synthetic peptide (Sangon Biotech, purity > 95%)
B2: PSMα2, synthetic peptide (peptide)
chain: For-MGIIAGIIKFIKGLIEKFTGK
notes: as for B1
B3: PSMα3, synthetic peptide (peptide)
chain: For-MEFVAKLFKFFKDLLGKFLGNN
notes: as for B1
B4: PSMα1, synthetic peptide (peptide)
chain: For-MGIIAGIIKVIKSLIEQFTGK
notes: as for B1
B5: PSMα1 (secreted by S. aureus MW2) (peptide)
chain: MGIIAGIIKVIKSLIEQFTGK
notes: also called phenol-soluble modulin α1
B6: PSMα2 (secreted by S. aureus MW2) (peptide)
chain: MGIIAGIIKFIKGLIEKFTGK
notes: also called phenol-soluble modulin α2
B7: PSMα3 (secreted by S. aureus MW2) (peptide)
chain: MEFVAKLFKFFKDLLGKFLGNN
notes: also called phenol-soluble modulin α3

What follows are binders tested against T1, N-terminus formylated δ-toxin, synthetic peptide (Staphylococcus aureus, N-formylmethionine at the N-terminus (fM)) (assay: co-IP). Conditions: both partners purified.
T1 construct: also called fδ-toxin

Binder | binding result
B1 | binds
B2 | binds
B3 | binds
B4 | binds

Target: B2
Assay: co-IP
Conditions: both partners purified

Binder | binding result
B1 | binds
B3 | binds
B4 | binds

The binders below were run against T2, deformylated δ-toxin, synthetic peptide (Staphylococcus aureus) (assay: co-IP). Conditions: both partners purified.
T2 construct: also called dfδ-toxin

Binder | binding result
B1 | binds
B2 | binds
B3 | binds
B4 | binds

Target: B3
Assay: co-IP
Conditions: both partners purified

Binder | binding result
B1 | binds
B2 | binds
B4 | binds

Target: B4
Assay: co-IP
Conditions: both partners purified

Binder | binding result
B1 | binds
B2 | binds
B3 | binds

Target: B7
Assay: co-IP
Conditions: both partners purified

Binder | binding result
B5 | binds
MAIVGTIIKIIKAIIDIFAK (also called phenol-soluble modulin α4) [PSMα4 (secreted by S. aureus MW2)] | binds
B6 | binds

Target: B6
Assay: co-IP
Conditions: both partners purified

Binder | binding result
B5 | binds
MAIVGTIIKIIKAIIDIFAK (also called phenol-soluble modulin α4) [PSMα4 (secreted by S. aureus MW2)] | binds
B7 | binds

Target: B5
Assay: co-IP
Conditions: both partners purified

Binder | binding result
MAIVGTIIKIIKAIIDIFAK (also called phenol-soluble modulin α4) [PSMα4 (secreted by S. aureus MW2)] | binds
B6 | binds
B7 | binds

Each binder was assayed against T3, δ-toxin (secreted by S. aureus MW2 and its ΔPSMα strain) (Staphylococcus aureus MW2, N-terminal methionine formylated in part of the peptides (fδ-toxin) and deformylated in the rest (dfδ-toxin); Aggregate1 more than 50% fδ-toxin, Aggregate2 more than 85% dfδ-toxin) (assay: co-IP). Conditions: both partners purified.
T3 construct: also called PSMγ; δ-hemolysin

Binder | binding result
B5 | binds
MAIVGTIIKIIKAIIDIFAK (also called phenol-soluble modulin α4) [PSMα4 (secreted by S. aureus MW2)] | binds
B6 | binds
B7 | binds
